Measurements as given in paper PMC9637222 (Nature Communications, 2022).

Target: T1, InvF (tag-free, purified) (S. Typhimurium, UniProt P69343 1-216)
T1 sequence: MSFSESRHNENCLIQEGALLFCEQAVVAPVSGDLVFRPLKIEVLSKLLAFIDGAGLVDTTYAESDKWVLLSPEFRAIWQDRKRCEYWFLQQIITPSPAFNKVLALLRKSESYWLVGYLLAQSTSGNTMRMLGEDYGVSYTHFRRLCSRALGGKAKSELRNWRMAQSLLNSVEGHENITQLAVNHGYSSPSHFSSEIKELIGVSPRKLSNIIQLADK
Experiment: ITC
Settings: both partners purified

B1: SicA (tag-free, purified) (natural protein)
chain: MDYQNNVSEERVAEMIWDAVSEGATLKDVHGIPQDMMDGLYAHAYEFYNQGRLDEAETFFRFLCIYDFYNPDYTMGLAAVCQLKKQFQKACDLYAVAFTLLKNDYRPVFFTGQCQLLMRKAAKARQCFELVNERTEDESLRAKALVYLEALKTAETEQHSEQEKE
notes: also called wild-type SicA
- binding result: binds
